Test system: SNAPtide (FITC/DABCYL), List Biological Laboratories product #521

BoNT/A complex (botulinum neurotoxin type A with neurotoxin associated proteins, Hall A strain)
Km of SNAPtide conversion, non-bead based assay (free toxin): non-bead based assay: typical Km=0.7 µM | Km of the immobilized enzyme against the free enzyme: 3.2-fold lower than for the free enzyme

— US20140235490A1
